Numbered stars: 1 amine (or outer) side, 2 acyl side, 3 side chain; on linkers, the order of the positions; unused ones are H or OH. Bridge positions count the residues as written; N and C are the ends. Side chains are listed from the residue outwards. Ends that are not written are not given here. * marks the point of attachment. C20 diacid = O=C(O)CCCCCCCCCCCCCCCCCCC(=O)*; γGlu = O=C(O)[C@H](CCC(=O)[*:2])N[*:1]; AEEA = NCCOCCOCC(=O)O

The target in this test is T1, human amylin receptor (human, UniProt P30988 25-474; O60896 24-148, limits assumed).
T1 construct: whole, on cells; Calcitonin receptor plus RAMP-3 gives the amylin 3(a) receptor; membranes of Amylin 3(a)/CRE-luc cells were used; also called hAmylin-R; hAmylinR
T1 sequence (looked up) 1: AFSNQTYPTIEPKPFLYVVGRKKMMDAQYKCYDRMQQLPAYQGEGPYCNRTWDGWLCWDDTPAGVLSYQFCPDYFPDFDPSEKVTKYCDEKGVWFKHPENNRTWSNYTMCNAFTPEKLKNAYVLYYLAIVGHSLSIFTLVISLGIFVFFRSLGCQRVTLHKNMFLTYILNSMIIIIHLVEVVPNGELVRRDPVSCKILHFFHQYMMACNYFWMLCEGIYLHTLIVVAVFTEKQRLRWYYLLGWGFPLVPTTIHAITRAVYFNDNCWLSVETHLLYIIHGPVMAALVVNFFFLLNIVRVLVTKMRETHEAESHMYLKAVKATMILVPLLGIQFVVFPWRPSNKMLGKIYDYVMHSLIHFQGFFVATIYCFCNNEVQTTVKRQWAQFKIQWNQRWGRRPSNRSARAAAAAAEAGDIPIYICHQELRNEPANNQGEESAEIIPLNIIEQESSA
T1 sequence (looked up) 2: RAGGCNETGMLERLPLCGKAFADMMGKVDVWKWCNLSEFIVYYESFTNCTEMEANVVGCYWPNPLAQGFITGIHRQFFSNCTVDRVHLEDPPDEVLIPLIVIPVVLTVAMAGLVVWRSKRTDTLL
Description: SPA competition binding, displacement of 125I-rat amylin from membranes with human amylin 3(a) receptor (Assay V). In a few lines:
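Cell membranes were prepared by homogenisation in Na-HEPES/EDTA buffer, pH 7.4, and stored at −80° C. They were then coupled to SPA beads at 35 ng/μL final and exposed to compounds in assay buffer containing CaCl2, MgCl₂, OA and Tween20. After 120 min at 25° C, plates were counted and IC₅₀ derived.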
For orientation: Displacement assays read how much labelled ligand stays bound in the presence of the test substance.

B1: N^-1-[(4S)-4-carboxy-4-(19-carboxynonadecanoylamino)butanoyl]-Gly[Arg1,Arg17,Pro21,Pro27]-h-amylin (peptide)
peptide: {C20 diacid-γGlu}-GRCNTATCATQRLANFLRHSSPNFGAIPSSTNVGSNTY-NH2
modifications: disulfide 3-8
SMILES: CC[C@H](C)[C@H](NC(=O)[C@H](C)NC(=O)CNC(=O)[C@H](Cc1ccccc1)NC(=O)[C@H](CC(N)=O)NC(=O)[C@@H]1CCCN1C(=O)[C@H](CO)NC(=O)[C@H](CO)NC(=O)[C@H](Cc1c[nH]cn1)NC(=O)[C@H](CCCNC(=N)N)NC(=O)[C@H](CC(C)C)NC(=O)[C@H](Cc1ccccc1)NC(=O)[C@H](CC(N)=O)NC(=O)[C@H](C)NC(=O)[C@H](CC(C)C)NC(=O)[C@H](CCCNC(=N)N)NC(=O)[C@H](CCC(N)=O)NC(=O)[C@@H](NC(=O)[C@H](C)NC(=O)[C@@H]1CSSC[C@H](NC(=O)[C@H](CCCNC(=N)N)NC(=O)CNC(=O)CC[C@H](NC(=O)CCCCCCCCCCCCCCCCCCC(=O)O)C(=O)O)C(=O)N[C@@H](CC(N)=O)C(=O)N[C@@H]([C@@H](C)O)C(=O)N[C@@H](C)C(=O)N[C@@H]([C@@H](C)O)C(=O)N1)[C@@H](C)O)C(=O)N1CCC[C@H]1C(=O)N[C@@H](CO)C(=O)N[C@@H](CO)C(=O)N[C@H](C(=O)N[C@@H](CC(N)=O)C(=O)N[C@H](C(=O)NCC(=O)N[C@@H](CO)C(=O)N[C@@H](CC(N)=O)C(=O)N[C@H](C(=O)N[C@@H](Cc1ccc(O)cc1)C(N)=O)[C@@H](C)O)C(C)C)[C@@H](C)O
notes: also called -1G, 1R, 17R, 21P, 27P
As a reminder, the IC50 is the midpoint of a concentration-inhibition curve. A higher IC50 goes with a need for much substance. In the case of B1, the IC50 came to 195 pM. This lies in the sub-nanomolar range.

B2: N^-1-[(4S)-4-carboxy-4-(19-carboxynonadecanoylamino)butanoyl]-Gly[Arg1,Arg17,Pro21,Pro27,His35]-h-amylin (peptide)
peptide: {C20 diacid-γGlu}-GRCNTATCATQRLANFLRHSSPNFGAIPSSTNVGSHTY-NH2
modifications: disulfide 3-8
SMILES: CC[C@H](C)[C@H](NC(=O)[C@H](C)NC(=O)CNC(=O)[C@H](Cc1ccccc1)NC(=O)[C@H](CC(N)=O)NC(=O)[C@@H]1CCCN1C(=O)[C@H](CO)NC(=O)[C@H](CO)NC(=O)[C@H](Cc1c[nH]cn1)NC(=O)[C@H](CCCNC(=N)N)NC(=O)[C@H](CC(C)C)NC(=O)[C@H](Cc1ccccc1)NC(=O)[C@H](CC(N)=O)NC(=O)[C@H](C)NC(=O)[C@H](CC(C)C)NC(=O)[C@H](CCCNC(=N)N)NC(=O)[C@H](CCC(N)=O)NC(=O)[C@@H](NC(=O)[C@H](C)NC(=O)[C@@H]1CSSC[C@H](NC(=O)[C@H](CCCNC(=N)N)NC(=O)CNC(=O)CC[C@H](NC(=O)CCCCCCCCCCCCCCCCCCC(=O)O)C(=O)O)C(=O)N[C@@H](CC(N)=O)C(=O)N[C@@H]([C@@H](C)O)C(=O)N[C@@H](C)C(=O)N[C@@H]([C@@H](C)O)C(=O)N1)[C@@H](C)O)C(=O)N1CCC[C@H]1C(=O)N[C@@H](CO)C(=O)N[C@@H](CO)C(=O)N[C@H](C(=O)N[C@@H](CC(N)=O)C(=O)N[C@H](C(=O)NCC(=O)N[C@@H](CO)C(=O)N[C@@H](Cc1c[nH]cn1)C(=O)N[C@H](C(=O)N[C@@H](Cc1ccc(O)cc1)C(N)=O)[C@@H](C)O)C(C)C)[C@@H](C)O
notes: also called -1G, 1R, 17R, 21P, 27P, 35H
For B2, the IC50 was determined as 344 pM.

B3: N^-1-[(4S)-4-carboxy-4-(19-carboxynonadecanoylamino)butanoyl]-Gly[Arg1,Ala14,Arg17,Pro21,Pro27,His34]-h-amylin (peptide)
peptide: {C20 diacid-γGlu}-GRCNTATCATQRLAAFLRHSSPNFGAIPSSTNVGHNTY-NH2
modifications: disulfide 3-8
SMILES: CC[C@H](C)[C@H](NC(=O)[C@H](C)NC(=O)CNC(=O)[C@H](Cc1ccccc1)NC(=O)[C@H](CC(N)=O)NC(=O)[C@@H]1CCCN1C(=O)[C@H](CO)NC(=O)[C@H](CO)NC(=O)[C@H](Cc1c[nH]cn1)NC(=O)[C@H](CCCNC(=N)N)NC(=O)[C@H](CC(C)C)NC(=O)[C@H](Cc1ccccc1)NC(=O)[C@H](C)NC(=O)[C@H](C)NC(=O)[C@H](CC(C)C)NC(=O)[C@H](CCCNC(=N)N)NC(=O)[C@H](CCC(N)=O)NC(=O)[C@@H](NC(=O)[C@H](C)NC(=O)[C@@H]1CSSC[C@H](NC(=O)[C@H](CCCNC(=N)N)NC(=O)CNC(=O)CC[C@H](NC(=O)CCCCCCCCCCCCCCCCCCC(=O)O)C(=O)O)C(=O)N[C@@H](CC(N)=O)C(=O)N[C@@H]([C@@H](C)O)C(=O)N[C@@H](C)C(=O)N[C@@H]([C@@H](C)O)C(=O)N1)[C@@H](C)O)C(=O)N1CCC[C@H]1C(=O)N[C@@H](CO)C(=O)N[C@@H](CO)C(=O)N[C@H](C(=O)N[C@@H](CC(N)=O)C(=O)N[C@H](C(=O)NCC(=O)N[C@@H](Cc1c[nH]cn1)C(=O)N[C@@H](CC(N)=O)C(=O)N[C@H](C(=O)N[C@@H](Cc1ccc(O)cc1)C(N)=O)[C@@H](C)O)C(C)C)[C@@H](C)O
notes: also called -1G, 1R, 14A, 17R, 21P, 27P, 34H
B3 showed an IC50 of 426 pM. This IC50 and that of the molecule before are within 1.5-fold of each other.

B4: N^ε-[(4S)-4-carboxy-4-(19-carboxynonadecanoylamino)butanoyl]Lys[Arg1,Arg17,Pro21,Pro27,His35]-h-amylin (peptide)
peptide: K([γGlu-C20 diacid])RCNTATCATQRLANFLRHSSPNFGAIPSSTNVGSHTY-NH2
modifications: disulfide 3-8; N-terminus assumed
SMILES: CC[C@H](C)[C@H](NC(=O)[C@H](C)NC(=O)CNC(=O)[C@H](Cc1ccccc1)NC(=O)[C@H](CC(N)=O)NC(=O)[C@@H]1CCCN1C(=O)[C@H](CO)NC(=O)[C@H](CO)NC(=O)[C@H](Cc1c[nH]cn1)NC(=O)[C@H](CCCNC(=N)N)NC(=O)[C@H](CC(C)C)NC(=O)[C@H](Cc1ccccc1)NC(=O)[C@H](CC(N)=O)NC(=O)[C@H](C)NC(=O)[C@H](CC(C)C)NC(=O)[C@H](CCCNC(=N)N)NC(=O)[C@H](CCC(N)=O)NC(=O)[C@@H](NC(=O)[C@H](C)NC(=O)[C@@H]1CSSC[C@H](NC(=O)[C@H](CCCNC(=N)N)NC(=O)[C@@H](N)CCCCNC(=O)CC[C@H](NC(=O)CCCCCCCCCCCCCCCCCCC(=O)O)C(=O)O)C(=O)N[C@@H](CC(N)=O)C(=O)N[C@@H]([C@@H](C)O)C(=O)N[C@@H](C)C(=O)N[C@@H]([C@@H](C)O)C(=O)N1)[C@@H](C)O)C(=O)N1CCC[C@H]1C(=O)N[C@@H](CO)C(=O)N[C@@H](CO)C(=O)N[C@H](C(=O)N[C@@H](CC(N)=O)C(=O)N[C@H](C(=O)NCC(=O)N[C@@H](CO)C(=O)N[C@@H](Cc1c[nH]cn1)C(=O)N[C@H](C(=O)N[C@@H](Cc1ccc(O)cc1)C(N)=O)[C@@H](C)O)C(C)C)[C@@H](C)O
notes: also called -1K, 1R, 17R, 21P, 27P, 35H
Turning to B4, the IC50 was 275 pM.

B5: N^-1-[(4S)-4-carboxy-4-(19-carboxynonadecanoylamino)butanoyl]-Gly[Arg1,His14,Arg17,Pro21,Pro27,Pro34]-h-amylin (peptide)
peptide: {C20 diacid-γGlu}-GRCNTATCATQRLAHFLRHSSPNFGAIPSSTNVGPNTY-NH2
modifications: disulfide 3-8
SMILES: CC[C@H](C)[C@H](NC(=O)[C@H](C)NC(=O)CNC(=O)[C@H](Cc1ccccc1)NC(=O)[C@H](CC(N)=O)NC(=O)[C@@H]1CCCN1C(=O)[C@H](CO)NC(=O)[C@H](CO)NC(=O)[C@H](Cc1c[nH]cn1)NC(=O)[C@H](CCCNC(=N)N)NC(=O)[C@H](CC(C)C)NC(=O)[C@H](Cc1ccccc1)NC(=O)[C@H](Cc1c[nH]cn1)NC(=O)[C@H](C)NC(=O)[C@H](CC(C)C)NC(=O)[C@H](CCCNC(=N)N)NC(=O)[C@H](CCC(N)=O)NC(=O)[C@@H](NC(=O)[C@H](C)NC(=O)[C@@H]1CSSC[C@H](NC(=O)[C@H](CCCNC(=N)N)NC(=O)CNC(=O)CC[C@H](NC(=O)CCCCCCCCCCCCCCCCCCC(=O)O)C(=O)O)C(=O)N[C@@H](CC(N)=O)C(=O)N[C@@H]([C@@H](C)O)C(=O)N[C@@H](C)C(=O)N[C@@H]([C@@H](C)O)C(=O)N1)[C@@H](C)O)C(=O)N1CCC[C@H]1C(=O)N[C@@H](CO)C(=O)N[C@@H](CO)C(=O)N[C@H](C(=O)N[C@@H](CC(N)=O)C(=O)N[C@H](C(=O)NCC(=O)N1CCC[C@H]1C(=O)N[C@@H](CC(N)=O)C(=O)N[C@H](C(=O)N[C@@H](Cc1ccc(O)cc1)C(N)=O)[C@@H](C)O)C(C)C)[C@@H](C)O
notes: also called -1G, 1R, 14H, 17R, 21P, 27P, 34P
As for B5, the IC50 was found to be 217 pM.

B6: N^ε-[2-[2-[2-[[(4S)-4-carboxy-4-(19-carboxynonadecanoylamino)butanoyl]amino]ethoxy]ethoxy]acetyl]Lys[Arg1,Arg17,Pro21,Pro27,His35]-h-amylin (peptide)
peptide: K([AEEA-γGlu-C20 diacid])RCNTATCATQRLANFLRHSSPNFGAIPSSTNVGSHTY-NH2
modifications: disulfide 3-8; N-terminus assumed
SMILES: CC[C@H](C)[C@H](NC(=O)[C@H](C)NC(=O)CNC(=O)[C@H](Cc1ccccc1)NC(=O)[C@H](CC(N)=O)NC(=O)[C@@H]1CCCN1C(=O)[C@H](CO)NC(=O)[C@H](CO)NC(=O)[C@H](Cc1c[nH]cn1)NC(=O)[C@H](CCCNC(=N)N)NC(=O)[C@H](CC(C)C)NC(=O)[C@H](Cc1ccccc1)NC(=O)[C@H](CC(N)=O)NC(=O)[C@H](C)NC(=O)[C@H](CC(C)C)NC(=O)[C@H](CCCNC(=N)N)NC(=O)[C@H](CCC(N)=O)NC(=O)[C@@H](NC(=O)[C@H](C)NC(=O)[C@@H]1CSSC[C@H](NC(=O)[C@H](CCCNC(=N)N)NC(=O)[C@@H](N)CCCCNC(=O)COCCOCCNC(=O)CC[C@H](NC(=O)CCCCCCCCCCCCCCCCCCC(=O)O)C(=O)O)C(=O)N[C@@H](CC(N)=O)C(=O)N[C@@H]([C@@H](C)O)C(=O)N[C@@H](C)C(=O)N[C@@H]([C@@H](C)O)C(=O)N1)[C@@H](C)O)C(=O)N1CCC[C@H]1C(=O)N[C@@H](CO)C(=O)N[C@@H](CO)C(=O)N[C@H](C(=O)N[C@@H](CC(N)=O)C(=O)N[C@H](C(=O)NCC(=O)N[C@@H](CO)C(=O)N[C@@H](Cc1c[nH]cn1)C(=O)N[C@H](C(=O)N[C@@H](Cc1ccc(O)cc1)C(N)=O)[C@@H](C)O)C(C)C)[C@@H](C)O
notes: as for B4
The molecule B6 registered an IC50 of 552 pM. This IC50 lies about 2.5-fold higher than the previous one.

B7: N^-1-[(4S)-4-carboxy-4-(19-carboxynonadecanoylamino)butanoyl]-Gly[Arg1,Ala14,Arg17,Pro21,Pro27,Pro34]-h-amylin (peptide)
peptide: {C20 diacid-γGlu}-GRCNTATCATQRLAAFLRHSSPNFGAIPSSTNVGPNTY-NH2
modifications: disulfide 3-8
notes: also called -1G, 1R, 14A, 17R, 21P, 27P, 34P
Regarding B7, the IC50 is 114 pM.

The values above are taken from patent publication US20140087995A1 (published 2014).
